In patent US20190351015:

B1: Siah1 (protein)
chain: MSRQTATALPTGTSKCPPSQRVPALTGTTASNNDLASLFECPVCFDYVLPPILQCQSGHLVCSNCRPKLTCCPTCRGPLGSIRNLAMEKVANSVLFPCKYASSGCEITLPHTEKADHEELCEFRPYSCPCPGASCKWQGSLDAVMPHLMHQHKSITTLQGEDIVFLATDINLPGAVDWVMMQSCFGFHFMLVLEKQEKYDGHQQFFAIVQLIGTRKQAENFAYRLELNGHRRRLTWEATPRSIHEGIATAIMNSDCLVFDTSIAQLFAENGNLGINVTISMC
- Degradation by Siah1 (Nkx3.2 (159-314)): ++
- Degradation by Siah1 (Nkx3.2 (110-324)): +++
- Degradation by Siah1 (Nkx3.2 (1-320)): +
- Degradation by Siah1 (Nkx3.2 (156-316)): ++
- Degradation by Siah1 (Nkx3.2 (123-333)): -
- Degradation by Siah1 (Nkx3.2 (112-320)): -
- Degradation by Siah1 (Nkx3.2 (105-327)): ++
- Degradation by Siah1 (Nkx3.2 (130-320)): -
- Degradation by Siah1 (Nkx3.2 (123-320)): -
- Degradation by Siah1 (Nkx3.2 (99-330)): +++
- Degradation by Siah1 (Nkx3.2 (1-333)): +++
- Degradation by Siah1 (Nkx3.2 (99-327)): +++
- Degradation by Siah1 (Nkx3.2 (165-310)): ++
- Degradation by Siah1 (Nkx3.2 (150-320)): -
- Degradation by Siah1 (Nkx3.2 (99-320)): +
- Degradation by Siah1 (Nkx3.2 (99-333)): ++
- Degradation by Siah1 (Nkx3.2 (162-312)): ++
- Degradation by Siah1 (Nkx3.2 (153-318)): -
- Degradation by Siah1 (Nkx3.2 (112-333)): ++
- Degradation by Siah1 (Nkx3.2 (42-333)): +++
- Degradation by Siah1 (Nkx3.2 (1-307)): -
